Data set [1] deals with T1, PapD (Escherichia coli, UniProt P15319).
T1 construct: (A) NAME/KEY: mat_; made in house; Lindberg et al. 1989
T1 sequence (P15319 22-239): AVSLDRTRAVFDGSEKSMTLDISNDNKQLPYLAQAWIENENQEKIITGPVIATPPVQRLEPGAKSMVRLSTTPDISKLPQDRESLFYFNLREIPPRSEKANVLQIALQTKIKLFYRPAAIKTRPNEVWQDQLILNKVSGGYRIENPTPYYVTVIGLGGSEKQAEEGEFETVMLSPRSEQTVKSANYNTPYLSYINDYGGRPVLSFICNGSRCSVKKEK
Kind of data set: Soluble inhibition ELISA: PapD binding to G1′-19′WT-coated wells. Further details: species or system E. coli. Conditions: 25-fold molar excess of peptide, 100 pmol/well PapD, compared to water. How it is done:
Microtiter wells were coated overnight at 4° C. with 50 μl of 2,5 pmol/50 μl of the G1′-19′WT peptide. The wells were washed with PBS and blocked with 3% bovine serum albumin (BSA). A 25-fold molar excess of each test peptide was pre-incubated with 100 pmoles PapD for 30 min. and the PapD-peptide solution was then added to the coated wells and incubated at 25° C. for 45 min in the presence of 3% BSA/PBS. The subsequent primary antibody, secondary antibody and developing steps are described above. The ability of the peptides to inhibit binding of PapD to the G1′-19′WT peptide was calculated by dividing the amount of PapD binding in the presence of peptide with the amount of PapD binding in the presence of water. 0% inhibition includes values where binding was greater than that of PapD pre-incubated with H2O.

Data set [2] concerns the target T1, PapD. Kind of data set: ELISA: PapD binding to peptides coated on microtiter wells. Also on record: species or system E. coli. The conditions noted are these: for binding of PapD to immobilized peptide: peptide coated on microtiter wells, ELISA with anti-PapD antiserum; for reduction of binding of PapD to the immobilized peptide: compared with G1′-19′WT peptide. How it is done:
FIG. 1: PapD binds to pilus subunit-related peptides coated in ELISA microtiter plates and in solution. A and B: The peptides from Table 1 were coated on microtiter wells and tested for their ability to bind to PapD in an ELISA assay described in example 2. Water insoluble peptides were dissolved in 2.5% acetic acid (AA) which had no effect on the binding of G1′-19′WT to PapD in this assay. Each group represents the average of duplicate wells.
5 mg/ml stock solutions of peptides in water or 50% acetic acid were diluted to a concentration of 2.5 pmol/50 μl in PBS. 50 μl of the peptide solution was coated overnight onto microtiter wells (Nunc-Immuno Plate Maxisorp) at 4° C. The solutions in the plates were discarded, and the wells were blocked with 200 μl 3% bovine serum albumin (BSA, Sigma) in PBS (120 mM NaCl/2.7 mM KCl/10 mM phosphate buffer salts, pH 7.4) for 2 hours at 25° C. The plates were washed vigorously 3 times with PBS and incubated with 50 μl of the indicated amount of purified PapD (Lindberg et al, 1989). After 3 washes with PBS, the wells were incubated with a 1:500 dilution of anti-PapD rabbit antiserum (Lindberg et al, 1989) in 3% BSA/PBS for 45 min. at 25° C. After 3 washes with PBS, the wells were incubated with a 1:1000 dilution of goat anti-rabbit IgG coupled to alkaline phosphatase (Sigma) in 3% BSA/PBS for 45 min. at 25° C. Following 3 washes with PBS and 3 washes with developing buffer (10 mM diethanolamine pH 9.5, 0,5 MM MgCl2), 50 μl filtered p-nitrophenyl phosphate substrate (Sigma) in developing buffer (10 mg/ml) was added. The absorbance at 405 nm was read after 60 min of incubation in the dark at 25° C.

In data set [3] the target is T1, PapD. The data set can be described thus: Protection of PapD against trypsin cleavage by peptides. The conditions noted are these: preincubation with 20-fold molar excess of peptide. Format: biochemical, E. coli. The method, then: A Lower: The rate of trypsin cleavage of PapD decreased upon preincubation with the G1′-19′WT, G1′-16′WT or K1′-19′WT peptides, but the G2′-21′amide peptide had no effect. 50 μg of purified PapD was preincubated for 15 min at 25° C. with a 20-fold molar excess of G1′-19′WT, G1′-16′WT, K1′-19′WT or G2′-21′amide peptides (any trypsin cleavage sites in these peptides occur at their amino termini where they were predicted not to interfere with PapD), or an equivalent volume of water. Each sample was then incubated at 37° C. with 3.2 μg of trypsin. Aliquots were removed after 0, 5, 10, 20, 30 and 40 min and boiled in SDS-PAGE sample buffer to stop the digestion. The samples were applied to 15% SDS-PAGE gels and the amount of full-length PapD remaining was determined by densitometry of Coomassie blue stained bands corresponding to full-length PapD which are shown.
400 μg of PapD was partially digested by incubation with either 4,5μg trypsin or 0.45 μg chymotrypsin on PBS for 20 min. at 37° C. The PapD digests were applied to a C-18 HPLC column (Beckman) and 2 major fragments were eluted with a 0-100% acetonitrile gradient in 0.01% trifluoroacetic acid. The PapD fragments were identified by their molecular weight on SDS-PAGE and amino-terminal sequencing. The N-terminal amino acid sequences of the approximately 14 kDa tryptic and chymotryptic fragments were identified as residues 100-108 and 104-109 of PapD, respectively, corresponding to cleavage after Lys-99 (for trypsin) and Leu-103 (for chymotrypsin). The N-terminal sequences of the 11 and 12 kDa bands in the digests were identical to the N-terminal sequence of PapD.

A further data set deals with T2, PapD-PapG complex (Escherichia coli, UniProt P15319).
T2 construct: (A) NAME/KEY: mat_; made in house
T2 sequence (P15319 22-239): T1 sequence (P15319 22-239)
Kind of data set: Reconstitution assay: restoration of PapD-PapG complex from reduced, denatured PapD-PapG. Format: binding, E. coli. Conditions: PapD preincubated with peptide. How it is done:
B: PapD incubated with the G1′-19′WT, G1′-16′WT, K1′-19′WT, and G2′-21′amide was added to reduced, denatured PapD-PapG and the amount of PapD-PapG complex restored in each sample was quantitated as described in example 2. The % inhibition represents the amount of the PapD-PapG complex restored with peptide-treated PapD compared to the amount of PapD-PapG complex restored with untreated PapD. The graph represent the average of 4 experiments. PapD and PapD-PapG complex were prepared as described in F. Lindberg et al, J. Bacteriol. 171, 6052 (1989) and S. J. Hultgren et al., Proc. Natl. Acad. Sci. USA 86, 4357 (1989).
FIG. 7: Ability of PapD Arg-8, Lys-112 and Thr-7 mutants to bind PapG and restore the PapD-PapG complex in vitro. 0.4 μg of PapD-PapG complex was reduced and denatured as described in FIG. 2B. The denatured PapD-PapG complex was then diluted with 0-630 ng purified wild type (WT) or mutant PapD. The amount of PapD-PapG restored in the samples was determined as in FIG. 2B and was graphed as a percentage of the greatest amount of PapD-PapG restored. The values graphed represent the average of 3 experiments. Wild type and mutant PapD and the PapD-PapG complex were purified as described in F. Lindberg et al, J. Bacteriol. 171, 6052 (1989) and S. J. Hultgren et al., Proc. Natl. Acad. Sci. USA 86, 4357 (1989).
The PapD-peptide solution was then added to the reduced, denatured PapD-PapG, incubated at 25° C. for 10 min, and applied to an IEF 3-9 gel (Pharmacia). The amount of PapD-PapG restored in each sample was quantitated by densitometry of the silver stained IEF band corresponding to the pI of the DG complex.

Data set [4] addresses T1, PapD. Kind of data set: ELISA: inhibition by peptides of PapD binding to MBP-G1′-140′ fusion protein. Also on record: species or system E. coli. The conditions noted are these: PapD preincubated with peptide at 1:25 ratio; preliminary results. How it is done:
Stock solutions of MBP-G1′-140′ proteins in PBS were diluted to 0.1 μM with PBS. The wells of microtiter plates were coated with 50 μl of the protein solutions overnight at 4° C. The wells were washed with PBS, and blocked with 200 μl of 3bovine serum albumin (BSA) in PBS for 2 hours at 25° C. The plates were washed vigorously three times with PBS and incubated with 50 μl of 1-5 μM PapD proteins in […]-PBS for 45 minutes at 25° C. The PapD was preincubated with each of the peptides at a 1:25 ratio for 30 min before being added to the wells. After three washings with PBS, the wells were incubated with a 1:500 dilution of rabbit anti-PapD antiserum in BSA-PBS for 45 minutes at 25° C. After three washings with PBS, the wells were incubated with a 1:1000 dilution of goat antiserum to rabbit IgG coupled to alkaline phosphatase in 3BSA-PBS for 45 minutes at 25° C. After three washings with PBS and three washings with developing buffer (10 mM diethanolamine, 0.5 mM MgCl2), 50 μl filtered 1 mg/ml p-nitrophenyl phosphate in developing buffer was added, the reaction was incubated for 1 hour or longer if necessary in the dark at 25° C., and the absorbance at 405 nm was read.

A short description of data set [5]: Water solubility of peptides. Format: physicochemical.

Entries after “also recorded” stand apart in the source; their conditions may differ.

With “G1′-4′: 4 C-terminal amino acid residues of PapG (numbering of b394) (LSFP)”, the “% Inhibition” value with PapD [1] worked out at 0%.

Take “NH2-GILNGGDFQTTASMAMIYN-COOH (H-GILNGGDFQTTASMAMIYN-OH) [F1′-19′WT]”: the “binding of PapD to immobilized peptide” value with PapD [2] is given as “moderately”.

On to “NH2-KSVVPGDYEATATFELTYR-COOH (H-KSVVPGDYEATATFELTYR-OH) [K1′-19′WT]”, for which, in the data set with PapD [3], the “rate of trypsin cleavage of PapD” value is recorded as “decreased; also recorded: reduced the rate of tryptic cleavage of PapD”. Also, in the data set with PapD-PapG complex, the “inhibition of restoration of the PapD-PapG complex by PapD” value (from here on “inhibition of restoration … by PapD”) is “inhibit restoration of the PapD-PapG complex”. Further, the “binding of PapD to immobilized peptide” value with PapD [2] is reported as “tight binding”; with PapD [2] (listed as PapK) it was “moderately”.

For “H-SGSMTMVLSFP-OH [G1′-11′WT, NH2-SGSMTMVLSFP-COOH]”, the “inhibitory power on binding of PapD to MBP-G1′-140′” value (from here on “inhibitory power on binding of PapD”) at PapD [4] is reported as “significantly more potent”. For the same substance, the “binding of PapD to immobilized peptide” value at PapD [2] is “binds”.

In the case of “H-QNLIAGPFSATATLVASYS-OH [E1′-19′WT, NH2-QNLIAGPFSATATLVASYS-COOH]”, the “binding of PapD to immobilized peptide” value at PapD [2] was “moderately”.

Regarding “NH2-GKRKPGELSGSMTMVLSFP-CONH2 (H-GKRKPGELSGSMTMVLSFP-NH2) [G1′-19′ amide]”, the “binding of PapD to immobilized peptide” value with PapD [2] was “did not affect binding to PapD”.

“NH2-YALAPNAVIPTSLALL-COOH (H-YALAPNAVIPTSLALL-OH) [MS, random hydrophobic peptide, reference compound]”: the “binding of PapD to immobilized peptide” value in the data set with PapD [2] is recorded as “no binding”. In the data set with PapD [1], the “% Inhibition” value stood at 1%.

Regarding “NH2-GKRKPGELSGSMTMVLSFP-COOH (H-GKRKPGELSGSMTMVLSFP-OH) [G1′-19′WT]”, the “rate of trypsin cleavage of PapD” value in the data set with PapD [3] is recorded as “decreased; also recorded: reduced the rate of tryptic cleavage of PapD”. Moreover, in the data set with PapD-PapG complex, the “inhibition of restoration … by PapD” value was “inhibit restoration of the PapD-PapG complex”. The “binding of PapD to immobilized peptide” value with PapD [2] is “bound well”.

“G1′-6′: length series of peptides from the C-terminus of PapG, 6 residues (MVLSFP)”: the “inhibitory power on binding of PapD” value with PapD [4] was “less active inhibitory peptides”.

As for “G1′-8′: octameric peptide from the C-terminus of PapG (MTMVLSFP)”, the “inhibitory power on binding of PapD” value with PapD [4] was “significantly higher inhibitive effect; also recorded: significantly more potent”.

With “H-TMVLSFP-OH [G1′-7′WT, NH2-TMVLSFP-COOH]”, at PapD [4], the “inhibitory power on binding of PapD” value is on record as “less active inhibitory peptides”. In addition, the “binding of PapD to immobilized peptide” value on PapD [2] is on record as “does not bind”. Moreover, the solubility entry in data set [5] is recorded as “limited solubility”.

For the substance “NH2-GKRKPVELSGSMTMVLSSP-COOH (H-GKRKPVELSGSMTMVLSSP-OH) [G1′-19′SV]”, in the data set with PapD [2], the “reduction of binding of PapD to the immobilized peptide” value stood at 36%.

Consider “NH2-EEGKRKPGELSGSMTMVLSF-CONH2 (H-EEGKRKPGELSGSMTMVLSF-NH2) [G2′-21′amide]”, for which the “rate of trypsin cleavage of PapD” value with PapD [3] is “had no effect and not”. The “inhibition of restoration … by PapD” value with PapD-PapG complex was “has no effect”. Also, in the data set with PapD [2], the “reduction of binding of PapD to the immobilized peptide” value was “approximately 75%” and the “binding of PapD to immobilized peptide” value is “reduced binding of PapD”. For the same substance, the “% Inhibition” value with PapD [1] came to 0%.

In the case of “NH2-KKLEAGNYFAVLGFRVDYE-COOH (H-KKLEAGNYFAVLGFRVDYE-OH) [H1′-19′ WT]”, the “binding of PapD to immobilized peptide” value with PapD [2] is on record as “no binding”.

Regarding “NH2-KPGELSGSMTMVLSFP-COOH (H-KPGELSGSMTMVLSFP-OH) [G1′-16′WT]”, the “rate of trypsin cleavage of PapD” value in the data set with PapD [3] is “decreased; also recorded: reduced the rate of tryptic cleavage of PapD”. Moreover, the “inhibitory power on binding of PapD” value in the data set with PapD [4] was “significantly more potent”. The “inhibition of restoration … by PapD” value with PapD-PapG complex is “inhibit restoration of the PapD-PapG complex”. Further, in the data set with PapD [2], the “binding of PapD to immobilized peptide” value is listed as “binds”.

The record behind these values is US6596504B2, “Treatment of prophylaxis of diseases caused by pilus-forming bacteria” (Washington University, priority 1993, dated 2003).
